Assay results published in the RNAGym collection of RNA variant scans (doi:10.1073/pnas.2313332121).

B1: TPR t1 (parent)
chain: GACCAAUCUGCCCUCAGAGCUCGAGAACAUCUUCGGAUGCAGAGGAGGCAGGCUUCGGUGGCGCGAUAGCGCCAACGUCCUCAACCUCCAAUGCAUCCCACCACAUGAUGAUGCCUGAAGAGCCUUGGUUUUUUG

Variants of: B1
Experiment: polymerase ribozyme fitness, log enrichment relative to wild type (log ratio); higher = more active; in vitro selection for triplet polymerase activity
Procedure, shortened: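 Mutant libraries of each subunit of a heterodimeric triplet polymerase ribozyme were built by PCR and transcribed. Each library went through one round of in vitro selection in triplicate: annealing with biotinylated primer, partner subunit and triplets, frozen incubation at −7 °C, gel excision of extended constructs, streptavidin-bead capture and RT-PCR. Input and output libraries were Illumina-sequenced; only genotypes with ≥10 input reads and ≥1 read per output were kept. Fitness is log2(genotype enrichment/wild-type enrichment), using inverse-variance-weighted replicate averages.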

| Variant | polymerase ribozyme fitness (log ratio) |
| --- | --- |
| A37U C82A G120C | 0.889 |
| A37U C80U C101A | -2.69 |
| A37U G48A | -0.338 |
| A37U G47C C49U | -2.66 |
| A37G C79G | -1.49 |
| A37U G44A C101A A111G | -1.68 |
| A37U C56G C72A | -2.62 |
| A37U G42A | -2.01 |
| A37U A50G U54G | -0.818 |
| A37U G39C U54C U59G C89A U112A A121C | -4.68 |
| A37U G71A A84C C85U U96A | -0.538 |
| A37C G120U | 0.436 |
| A37U C72U C98A C123G | -5.11 |
| A37G U131G | -1.11 |
| A37U C56U | -0.686 |
| A37U C56A | -1.32 |
| A37G C49G U81G | -2.07 |
| A37U C79A U87G U96A A118U | -0.000648 |
| A37U C86U | -0.912 |
| A37U G69U A118C | -2.82 |
| A37U G60U G113U | -3.06 |

| Variant | polymerase ribozyme fitness (log ratio) |
| --- | --- |
| A37U C49A U55C U112A | 0.525 |
| A37U A75U | -0.0341 |
| A37G G60A G127A | -2 |
| A37U C73A U87C | 0.034 |
| A37G C62U | -0.523 |
| A37U G48A A105U A111U | -6.33 |
| A37U C114A A121C U125C | -0.52 |
| A37G G57A G110C | -5.28 |
| A37U G39U | -1.39 |
| A37G C62A C85U | -5.14 |
| A37U C82U G128C U130C | -2.33 |
| A37G U59C A103U G110C G122A | -6.29 |
| A37G A100U | -1.32 |
| A37U C40U U87G | -1.01 |
| A37G G48A C56G G93A G110C | -5.64 |
| A37U C53G C89U C102U U131A | -2.62 |
| A37U C86A U112G G128A | -3.56 |
| A37C G113C | -2.44 |
| A37U G47A G77A | -1.29 |
| A37U G69C C72U C85U | -1.89 |
| A37U C64U U132C | -0.703 |

| Variant | polymerase ribozyme fitness (log ratio) |
| --- | --- |
| A37U A74U A121C | 1.55 |
| A37U A50C G61A G117C U130C | -4.59 |
| A37U C94U G117A | -2.17 |
| A37G G51C G77C C80A G120C G128C | -5.93 |
| A37U C72A C73U G117U C124A | -1.66 |
| A37G G61C | -1.44 |
| A37G G61A | -0.324 |
| A37G G61U | -1.33 |
| A37C G107A C123A | -5.8 |
| A37U G77A A90U C123U | -0.717 |
| A37U C70A C99U | -5.64 |
| A37C G52C G60A C86U | -2.95 |
| A37G C56U A100U C102A U116A | -6.14 |
| A37G C49A C56A G128C | -3.61 |
| A37U C49G U55A C104A | -1.38 |
| A37G G48A C56G G71U G117C | -6.21 |
| A37U G45U G61C | -2.86 |
| A37G G69A | -2.42 |
| A37U C89U A108G | -3.18 |
| A37U C82G G110C | -6.53 |
| A37U G42C G57C C70U U129A | -5 |

| Variant | polymerase ribozyme fitness (log ratio) |
| --- | --- |
| A37C G52A A83C U116C | -2.17 |
| A37C G51C | -4.02 |
| A37U G52U C64U C123A C124A | 0.273 |
| A37G A46U C56A G120A | -1.7 |
| A37U A50U G63U G120U U126A U130A | -5.22 |
| A37U G44A G122A U130C U131A G135U | -1.23 |
| A37C G93U A111G | -2.63 |
| A37U G77U G93C | -2.05 |
| A37C G61U | 0.0821 |
| A37C G63U | -1.28 |
| A37U G110A | -1.04 |
| A37U C70U C79U | -0.766 |
| A37U G39U C104U | -1.36 |
| A37U G69U | -0.0814 |
| A37G C53A C73G A105G U109G U112A | -6.74 |
| A37U G42C C49G C85U G93U C102U U133G | -5.53 |
| A37C G120A G122A | -1.07 |
| A37U C49G G77U G120C | 0.00604 |
| A37U G52U C62A | -2.78 |
| A37C G45C G71C U130G U131C G135U | -3.26 |
